Experimental findings from US20200262867A1 (WNTRX PHARMACEUTICALS, published 2020) are described below.

B1: SEQ ID NO: 179 (peptide)
peptide: Ac-HRQRSLQTLR[S5]IQR[S5][Phe(4-Cl)][2Nal]-NH2
modifications: staple 11-15
SMILES: CC[C@H](C)[C@@H]1NC(=O)[C@@](C)(NC(=O)[C@H](CCCNC(=N)N)NC(=O)[C@H](CC(C)C)NC(=O)[C@@H](NC(=O)[C@H](CCC(N)=O)NC(=O)[C@H](CC(C)C)NC(=O)[C@H](CO)NC(=O)[C@H](CCCNC(=N)N)NC(=O)[C@H](CCC(N)=O)NC(=O)[C@H](CCCNC(=N)N)NC(=O)[C@H](Cc2c[nH]cn2)NC(C)=O)[C@@H](C)O)CCCC=CCCC[C@@](C)(C(=O)N[C@@H](Cc2ccc(Cl)cc2)C(=O)N[C@@H](Cc2ccc3ccccc3c2)C(N)=O)NC(=O)[C@H](CCCNC(=N)N)NC(=O)[C@H](CCC(N)=O)NC1=O
B2: SEQ ID NO: 145 (peptide)
peptide: Ac-HRERSLQTLR[S5]IQQ[S5][Cba][2Nal]-NH2
modifications: staple 11-15
SMILES: CC[C@H](C)[C@@H]1NC(=O)[C@@](C)(NC(=O)[C@H](CCCNC(=N)N)NC(=O)[C@H](CC(C)C)NC(=O)[C@@H](NC(=O)[C@H](CCC(N)=O)NC(=O)[C@H](CC(C)C)NC(=O)[C@H](CO)NC(=O)[C@H](CCCNC(=N)N)NC(=O)[C@H](CCC(=O)O)NC(=O)[C@H](CCCNC(=N)N)NC(=O)[C@H](Cc2c[nH]cn2)NC(C)=O)[C@@H](C)O)CCCC=CCCC[C@@](C)(C(=O)N[C@@H](CC2CCC2)C(=O)N[C@@H](Cc2ccc3ccccc3c2)C(N)=O)NC(=O)[C@H](CCC(N)=O)NC(=O)[C@H](CCC(N)=O)NC1=O
B3: SEQ ID NO: 157 (peptide)
peptide: Ac-HR[NMeD]RSLQTLR[S5]IQR[S5][Cba][2Nal]-NH2
modifications: staple 11-15
SMILES: CC[C@H](C)[C@@H]1NC(=O)[C@@](C)(NC(=O)[C@H](CCCNC(=N)N)NC(=O)[C@H](CC(C)C)NC(=O)[C@@H](NC(=O)[C@H](CCC(N)=O)NC(=O)[C@H](CC(C)C)NC(=O)[C@H](CO)NC(=O)[C@H](CCCNC(=N)N)NC(=O)[C@H](CC(=O)O)N(C)C(=O)[C@H](CCCNC(=N)N)NC(=O)[C@H](Cc2c[nH]cn2)NC(C)=O)[C@@H](C)O)CCCC=CCCC[C@@](C)(C(=O)N[C@@H](CC2CCC2)C(=O)N[C@@H](Cc2ccc3ccccc3c2)C(N)=O)NC(=O)[C@H](CCCNC(=N)N)NC(=O)[C@H](CCC(N)=O)NC1=O
B4: SEQ ID NO: 14 (peptide)
peptide: Ac-HRERSLQTLR[S5]IQR[S5][Cba][2Nal]-NH2
modifications: staple 11-15
SMILES: CC[C@H](C)[C@@H]1NC(=O)[C@@](C)(NC(=O)[C@H](CCCNC(=N)N)NC(=O)[C@H](CC(C)C)NC(=O)[C@@H](NC(=O)[C@H](CCC(N)=O)NC(=O)[C@H](CC(C)C)NC(=O)[C@H](CO)NC(=O)[C@H](CCCNC(=N)N)NC(=O)[C@H](CCC(=O)O)NC(=O)[C@H](CCCNC(=N)N)NC(=O)[C@H](Cc2c[nH]cn2)NC(C)=O)[C@@H](C)O)CCCC=CCCC[C@@](C)(C(=O)N[C@@H](CC2CCC2)C(=O)N[C@@H](Cc2ccc3ccccc3c2)C(N)=O)NC(=O)[C@H](CCCNC(=N)N)NC(=O)[C@H](CCC(N)=O)NC1=O
B5: SEQ ID NO: 151 (peptide)
peptide: Ac-HR[NMeE]RSLQTLR[S5]IQR[S5][Cba][2Nal]-NH2
modifications: staple 11-15
SMILES: CC[C@H](C)[C@@H]1NC(=O)[C@@](C)(NC(=O)[C@H](CCCNC(=N)N)NC(=O)[C@H](CC(C)C)NC(=O)[C@@H](NC(=O)[C@H](CCC(N)=O)NC(=O)[C@H](CC(C)C)NC(=O)[C@H](CO)NC(=O)[C@H](CCCNC(=N)N)NC(=O)[C@H](CCC(=O)O)N(C)C(=O)[C@H](CCCNC(=N)N)NC(=O)[C@H](Cc2c[nH]cn2)NC(C)=O)[C@@H](C)O)CCCC=CCCC[C@@](C)(C(=O)N[C@@H](CC2CCC2)C(=O)N[C@@H](Cc2ccc3ccccc3c2)C(N)=O)NC(=O)[C@H](CCCNC(=N)N)NC(=O)[C@H](CCC(N)=O)NC1=O
B6: SEQ ID NO: 156 (peptide)
peptide: Ac-HRQRS[Cba]QTLR[S5]IQR[S5][Cba][2Nal]-NH2
modifications: staple 11-15
SMILES: CC[C@H](C)[C@@H]1NC(=O)[C@@](C)(NC(=O)[C@H](CCCNC(=N)N)NC(=O)[C@H](CC(C)C)NC(=O)[C@@H](NC(=O)[C@H](CCC(N)=O)NC(=O)[C@H](CC2CCC2)NC(=O)[C@H](CO)NC(=O)[C@H](CCCNC(=N)N)NC(=O)[C@H](CCC(N)=O)NC(=O)[C@H](CCCNC(=N)N)NC(=O)[C@H](Cc2c[nH]cn2)NC(C)=O)[C@@H](C)O)CCCC=CCCC[C@@](C)(C(=O)N[C@@H](CC2CCC2)C(=O)N[C@@H](Cc2ccc3ccccc3c2)C(N)=O)NC(=O)[C@H](CCCNC(=N)N)NC(=O)[C@H](CCC(N)=O)NC1=O
B7: SEQ ID NO: 146 (peptide)
peptide: Ac-HRERSLQTLR[S5]IQE[S5][Cba][2Nal]-OH
modifications: staple 11-15
SMILES: CC[C@H](C)[C@@H]1NC(=O)[C@@](C)(NC(=O)[C@H](CCCNC(=N)N)NC(=O)[C@H](CC(C)C)NC(=O)[C@@H](NC(=O)[C@H](CCC(N)=O)NC(=O)[C@H](CC(C)C)NC(=O)[C@H](CO)NC(=O)[C@H](CCCNC(=N)N)NC(=O)[C@H](CCC(=O)O)NC(=O)[C@H](CCCNC(=N)N)NC(=O)[C@H](Cc2c[nH]cn2)NC(C)=O)[C@@H](C)O)CCCC=CCCC[C@@](C)(C(=O)N[C@@H](CC2CCC2)C(=O)N[C@@H](Cc2ccc3ccccc3c2)C(=O)O)NC(=O)[C@H](CCC(=O)O)NC(=O)[C@H](CCC(N)=O)NC1=O

Broadly, the IC50 is the midpoint of a concentration-inhibition curve. Read a high IC50 as lower potency.

Bridges are numbered along the chain shown (N, C = ends). [ ]: non-standard residue; d: D form. Phe(4-Cl) = N[C@@H](Cc1ccc(Cl)cc1)C(=O)O; 2Nal = N[C@@H](Cc1ccc2ccccc2c1)C(=O)O; NMeR = CN[C@@H](CCCNC(=N)N)C(=O)O; NMeE = CN[C@@H](CCC(=O)O)C(=O)O; NMeD = CN[C@@H](CC(=O)O)C(=O)O; Cba = N[C@@H](CC1CCC1)C(=O)O; S5 = C=CCCC[C@](C)(N)C(=O)O

The target in the assay is T1, β-catenin (UniProt P35222 1-781, limits assumed).
T1 construct: also called beta-catenin
T1 sequence (looked up): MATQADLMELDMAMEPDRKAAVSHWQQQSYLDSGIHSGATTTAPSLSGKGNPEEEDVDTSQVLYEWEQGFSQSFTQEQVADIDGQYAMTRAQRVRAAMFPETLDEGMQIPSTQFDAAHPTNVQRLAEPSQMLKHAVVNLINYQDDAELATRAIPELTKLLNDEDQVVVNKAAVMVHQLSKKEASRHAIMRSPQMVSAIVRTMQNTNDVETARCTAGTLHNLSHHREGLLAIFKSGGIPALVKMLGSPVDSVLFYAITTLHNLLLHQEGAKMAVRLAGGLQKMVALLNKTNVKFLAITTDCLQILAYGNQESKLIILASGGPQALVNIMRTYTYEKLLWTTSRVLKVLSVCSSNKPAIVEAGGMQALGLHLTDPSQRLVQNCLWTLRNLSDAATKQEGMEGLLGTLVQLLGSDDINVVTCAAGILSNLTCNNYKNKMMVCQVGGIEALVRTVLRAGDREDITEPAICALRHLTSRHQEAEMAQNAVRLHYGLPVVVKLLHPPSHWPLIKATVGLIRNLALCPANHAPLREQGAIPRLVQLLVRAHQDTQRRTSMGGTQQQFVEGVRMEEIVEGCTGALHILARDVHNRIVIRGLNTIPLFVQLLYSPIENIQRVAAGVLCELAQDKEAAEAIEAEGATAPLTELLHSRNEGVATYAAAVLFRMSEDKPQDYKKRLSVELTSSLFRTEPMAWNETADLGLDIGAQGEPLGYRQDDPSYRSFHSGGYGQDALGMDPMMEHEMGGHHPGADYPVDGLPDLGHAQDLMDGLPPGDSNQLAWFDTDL
The assay can be described thus: ALPHA Screen (BCL9/β-catenin).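 Also: bead proximity readout with the polypeptide linked to donor beads and β-catenin fixed on acceptor beads, their binding bringing the beads close enough to emit signal.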
Excerpt: In this assay, a polypeptide is conjugated to a donor bead and its target protein (i.e., β-catenin) is attached to an acceptor bead. When the two beads are in proximity due to the binding of the polypeptide to the target protein, a signal is generated and the binding affinity of the polypeptide can be quantitatively calculated. The assay may be conducted in the presence or absence of an unconjugated control polypeptide.
Ac-H[NMeR]QRSLQTLR[S5]IQR[S5][Cba][2Nal]-NH2 (staple 11-15) [SEQ ID NO: 166]: half-maximal inhibition (IC50) required 403 nM. With B1 the figure was 59 nM; with Ac-HRERSLQTL[NMeR][S5]IQR[S5][Cba][2Nal]-OH (staple 11-15; not fully specified) [SEQ ID NO: 152], 794 nM; with Ac-HRERSLQTLR[S5]IQA[S5][Cba][2Nal]-NH2 (staple 11-15; not fully specified; printed as HRERSLQTLRXIQAX(CBA)(2-Nal)) [SEQ ID NO: 29], 1350 nM.

Molecule B2 returned an IC50 of 154 nM. With Ac-HRQRTLQTLR[S5]IQR[S5][Cba][2Nal]-NH2 (staple 11-15) [SEQ ID NO: 159] the figure was 291 nM. The figure for B3 is 525 nM; for B4 it is 457 nM; for B5 it is 261 nM.

Molecule Ac-HRERSLQTLR[S5]IQA[S5]L[2Nal]-NH2 (staple 11-15; not fully specified; printed as HRERSLQTLRXIQAXL(2-Nal)) [SEQ ID NO: 28] registered an IC50 of 2000 nM. With Ac-HRERSLQTLR[S5]IQR[S5]L[2Nal]-NH2 (staple 11-15; not fully specified; printed as HRERSLQTLRXIQRXL(2-Nal)) [SEQ ID NO: 6] the figure was 670 nM; with B6, 253 nM. The figure for B7 is 493 nM.

Molecule Ac-HQERSLQTLR[S5]IQR[S5]L[2Nal]-NH2 (staple 11-15; not fully specified; printed as HQERSLQTLRXIQRXL(2-Nal)) [SEQ ID NO: 11] returned an IC50 of 2110 nM.
